{"source": "patent US20150218281A1", "about": "(Ablynx, published 2015)", "binders": {"B1": {"name": "OX40L15B07 (VHH)", "VHH": "EVQLVESGGGLVQAGGSLRLSCAASRSIGRLDRMGWYRHRTGEPRELVATITGGSSINYGDFVKGRFTISIDNAKNTVYLQMNNLKPEDTAVYYCNFNKYVTSRDTWGQGTQVTVSS", "notes": "monovalent Nanobody from E. coli; not shown: C-terminal c-myc and His6 tag"}}, "target": "T1, recombinant human OX40L (extracellular domain, R&D Systems) (human, UniProt P23510 51-183)", "T1 sequence": "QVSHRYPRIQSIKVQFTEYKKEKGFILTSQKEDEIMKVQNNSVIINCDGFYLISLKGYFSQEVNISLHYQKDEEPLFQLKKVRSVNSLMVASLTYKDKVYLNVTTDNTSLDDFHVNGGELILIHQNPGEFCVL", "assay": "cell-based or functional assay"}
{"binder": "B1", "values": [{"measurement": "IC50, T cell assay with rec. hOX40L", "value": 10, "unit": "nM"}]}
